Measurements reported in patent US20250043302A1, “MUTATED HYDROXYPHENYLPYRUVATE DIOXYGENASE POLYPEPTIDE, AND CODING GENE AND USE THEREOF” (BEIJING DABEINONG BIOTECHNOLOGY CO., LTD., priority 2021, published 2025).

Assays:
[1] = system: Arabidopsis thaliana T1 plants; test: Isoxaflutole tolerance of transgenic Arabidopsis thaliana T1 plants (spray, bleached leaf area grade, damage score); format: in vivo;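 as to Scores: Weighted damage index from 0 to 100 where higher means more damage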
Summary of the method: (§1)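 T1 transformants selected by glufosinate; 18-day-old plants, with empty-vector and wild-type controls, sprayed with topramezone (25–200 g ai/ha), isoxaflutole (35–280 g ai/ha) or mesotrione (52.5–420 g ai/ha), water as 0×. Bleached leaf area fraction scored at 7 DAT as grades 0–3.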

[2] = system: Arabidopsis thaliana T1 plants; test: Mesotrione tolerance of transgenic Arabidopsis thaliana T1 plants (spray, bleached leaf area grade, damage score); format: in vivo; design: Scores: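 damage score 0-100 computed as Σ(N×S)/(T×M)×100 over grades 0-3 with higher meaning more damage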
Summary of the method: as §1

[3] = isoxaflutole 140 g ai/ha, number of plants in grade
[4] = isoxaflutole 280 g ai/ha, number of plants in grade
[5] = mesotrione 210 g ai/ha, number of plants in grade
[6] = mesotrione 420 g ai/ha, number of plants in grade

B1: AsHPPDm-A111T-F383W-02: nucleotide sequence encoding Avena sativa HPPD with A111T+F383W; vector DBN11782 (nucleic acid)
DNA: ATGCCACCTACTCCAGCTACAGCTACTGGTGCTGCTGCTGCTGCCGTTACTCCTGAGCACGCTGCCAGGTCATTCCCCAGGGTGGTTCGCGTGAACCCCAGATCTGATAGGTTCCCAGTTCTGAGCTTCCACCATGTTGAGCTGTGGTGCGCTGATGCTGCTTCTGCTGCTGGCAGGTTCTCTTTCGCTCTTGGTGCTCCACTCGCTGCTAGATCTGATCTGTCTACAGGAAATAGCGCTCATGCCTCACTCCTGCTTCGCTCAGGTGCTTTGGCCTTCCTCTTCACCGCTCCATATGCTCCCCCACCTCAGGAGGCTGCTACTGCTGCTACTACAGCCTCCATTCCAAGCTTCTCAGCTGATGCCGCTAGAACCTTCGCTGCTGCTCATGGACTTGCCGTGAGGTCTGTTGGTGTTCGCGTGGCTGATGCTGCTGAGGCTTTCAGAGTTTCCGTTGCCGGCGGAGCTAGGCCAGCTTTCGCTCCTGCTGATTTGGGACATGGTTTCGGCCTGGCTGAGGTTGAGCTTTACGGTGACGTGGTTCTCCGCTTCGTGTCTTACCCAGATGAGACTGACCTGCCTTTCCTTCCCGGCTTCGAGAGAGTTTCCTCTCCTGGTGCCGTGGATTACGGCCTGACAAGGTTCGACCACGTGGTTGGAAACGTTCCCGAGATGGCTCCAGTGATCGATTACATGAAGGGCTTCCTTGGATTCCATGAGTTCGCCGAGTTCACTGCTGAGGACGTGGGAACCACTGAGTCCGGTTTGAACTCTGTGGTTCTCGCCAACAATTCTGAGGCTGTTTTGCTCCCTCTGAATGAGCCTGTGCATGGAACCAAGAGGAGAAGCCAGATTCAAACTTACCTGGAGTACCACGGTGGCCCTGGAGTTCAGCATATCGCCCTTGCTTCTAATGATGTGTTGCGCACACTCAGAGAGATGCGCGCCAGAACCCCCATGGGAGGTTTCGAGTTCATGGCCCCACCACAGGCTAAGTACTACGAGGGCGTTAGAAGGATTGCTGGAGACGTGTTGAGCGAGGAGCAGATCAAGGAGTGCCAAGAGCTGGGTGTTCTTGTGGATAGGGATGACCAGGGCGTTCTGCTTCAAATTTTCACTAAGCCAGTGGGCGACCGCCCTACATTCTGGCTTGAGATGATTCAAAGAATCGGCTGCATGGAGAAGGATGAGGTTGGACAGGAGTACCAAAAGGGCGGATGCGGTGGCTTCGGAAAGGGTAACTTCAGCGAGTTGTTCAAGTCAATCGAGGACTACGAGAAGAGCCTCGAGGTGAAGCAGTCAGTGGTTGCCCAAAAGTCCTGA
modifications: AsHPPDm-A111T-F383W-02 Nucleotide Sequence
notes: vector DBN11782
- Resistance evaluation ([1]; Table 11, isoxaflutole 140 g ai/ha (2×)): Moderately
- Classification and statistics of the grade of pesticide damage Grade 0 ([1]; Table 11, isoxaflutole 140 g ai/ha (2×), number of plants at grade 0): 6
- Classification and statistics of the grade of pesticide damage Grade 1 ([1]; Table 11, isoxaflutole 140 g ai/ha (2×), number of plants at grade 1): 8
- Classification and statistics of the grade of pesticide damage Grade 2 ([1]; Table 11, isoxaflutole 140 g ai/ha (2×), number of plants at grade 2): 2
- Classification and statistics of the grade of pesticide damage Grade 3 ([1]; Table 11, isoxaflutole 140 g ai/ha (2×), number of plants at grade 3): 0
- Scores ([1]; Table 11, isoxaflutole 140 g ai/ha (2×), pesticide damage score): 25
- Resistance evaluation ([1]; Table 11, isoxaflutole 280 g ai/ha (4×)): Poorly resistant
- Classification and statistics of the grade of pesticide damage Grade 0 ([1]; Table 11, isoxaflutole 280 g ai/ha (4×), number of plants at grade 0): 4
- Classification and statistics of the grade of pesticide damage Grade 1 ([1]; Table 11, isoxaflutole 280 g ai/ha (4×), number of plants at grade 1): 4
- Classification and statistics of the grade of pesticide damage Grade 2 ([1]; Table 11, isoxaflutole 280 g ai/ha (4×), number of plants at grade 2): 8
- Classification and statistics of the grade of pesticide damage Grade 3 ([1]; Table 11, isoxaflutole 280 g ai/ha (4×), number of plants at grade 3): 0
- Scores ([1]; Table 11, isoxaflutole 280 g ai/ha (4×), pesticide damage score): 42
- Resistance evaluation ([2]; Table 12, mesotrione 210 g ai/ha (2×)): Moderately
- Classification and statistics of the grade of pesticide damage Grade 0 ([2]; Table 12, mesotrione 210 g ai/ha (2×), number of plants at grade 0): 4
- Classification and statistics of the grade of pesticide damage Grade 1 ([2]; Table 12, mesotrione 210 g ai/ha (2×), number of plants at grade 1): 10
- Classification and statistics of the grade of pesticide damage Grade 2 ([2]; Table 12, mesotrione 210 g ai/ha (2×), number of plants at grade 2): 2
- Classification and statistics of the grade of pesticide damage Grade 3 ([2]; Table 12, mesotrione 210 g ai/ha (2×), number of plants at grade 3): 0
- Scores ([2]; Table 12, mesotrione 210 g ai/ha (2×), pesticide damage score): 29
- Resistance evaluation ([2]; Table 12, mesotrione 420 g ai/ha (4×)): Poorly resistant
- Classification and statistics of the grade of pesticide damage Grade 0 ([2]; Table 12, mesotrione 420 g ai/ha (4×), number of plants at grade 0): 0
- Classification and statistics of the grade of pesticide damage Grade 1 ([2]; Table 12, mesotrione 420 g ai/ha (4×), number of plants at grade 1): 2
- Classification and statistics of the grade of pesticide damage Grade 2 ([2]; Table 12, mesotrione 420 g ai/ha (4×), number of plants at grade 2): 13
- Classification and statistics of the grade of pesticide damage Grade 3 ([2]; Table 12, mesotrione 420 g ai/ha (4×), number of plants at grade 3): 1
- Scores ([2]; Table 12, mesotrione 420 g ai/ha (4×), pesticide damage score): 65

B2: AsHPPDm-F415W-02: nucleotide sequence encoding Avena sativa HPPD with F415W; vector DBN11791 (nucleic acid)
DNA: ATGCCACCTACTCCAGCTACAGCTACTGGTGCTGCTGCTGCTGCCGTTACTCCTGAGCACGCTGCCAGGTCATTCCCCAGGGTGGTTCGCGTGAACCCCAGATCTGATAGGTTCCCAGTTCTGAGCTTCCACCATGTTGAGCTGTGGTGCGCTGATGCTGCTTCTGCTGCTGGCAGGTTCTCTTTCGCTCTTGGTGCTCCACTCGCTGCTAGATCTGATCTGTCTACAGGAAATAGCGCTCATGCCTCACTCCTGCTTCGCTCAGGTGCTTTGGCCTTCCTCTTCACCGCTCCATATGCTCCCCCACCTCAGGAGGCTGCTACTGCTGCTGCTACAGCCTCCATTCCAAGCTTCTCAGCTGATGCCGCTAGAACCTTCGCTGCTGCTCATGGACTTGCCGTGAGGTCTGTTGGTGTTCGCGTGGCTGATGCTGCTGAGGCTTTCAGAGTTTCCGTTGCCGGCGGAGCTAGGCCAGCTTTCGCTCCTGCTGATTTGGGACATGGTTTCGGCCTGGCTGAGGTTGAGCTTTACGGTGACGTGGTTCTCCGCTTCGTGTCTTACCCAGATGAGACTGACCTGCCTTTCCTTCCCGGCTTCGAGAGAGTTTCCTCTCCTGGTGCCGTGGATTACGGCCTGACAAGGTTCGACCACGTGGTTGGAAACGTTCCCGAGATGGCTCCAGTGATCGATTACATGAAGGGCTTCCTTGGATTCCATGAGTTCGCCGAGTTCACTGCTGAGGACGTGGGAACCACTGAGTCCGGTTTGAACTCTGTGGTTCTCGCCAACAATTCTGAGGCTGTTTTGCTCCCTCTGAATGAGCCTGTGCATGGAACCAAGAGGAGAAGCCAGATTCAAACTTACCTGGAGTACCACGGTGGCCCTGGAGTTCAGCATATCGCCCTTGCTTCTAATGATGTGTTGCGCACACTCAGAGAGATGCGCGCCAGAACCCCCATGGGAGGTTTCGAGTTCATGGCCCCACCACAGGCTAAGTACTACGAGGGCGTTAGAAGGATTGCTGGAGACGTGTTGAGCGAGGAGCAGATCAAGGAGTGCCAAGAGCTGGGTGTTCTTGTGGATAGGGATGACCAGGGCGTTCTGCTTCAAATTTTCACTAAGCCAGTGGGCGACCGCCCTACATTCTTCCTTGAGATGATTCAAAGAATCGGCTGCATGGAGAAGGATGAGGTTGGACAGGAGTACCAAAAGGGCGGATGCGGTGGCTTCGGAAAGGGTAACTGGAGCGAGTTGTTCAAGTCAATCGAGGACTACGAGAAGAGCCTCGAGGTGAAGCAGTCAGTGGTTGCCCAAAAGTCCTGA
modifications: AsHPPDm-F415W-02 Nucleotide Sequence
notes: vector DBN11791
- Resistance evaluation ([1]; isoxaflutole 140 g ai/ha): Moderately
- Scores ([1]; isoxaflutole 140 g ai/ha): 31
- Classification and statistics of the grade of pesticide damage Grade 0 [1, 3]: 5
- Classification and statistics of the grade of pesticide damage Grade 1 [1, 3]: 7
- Classification and statistics of the grade of pesticide damage Grade 2 [1, 3]: 4
- Classification and statistics of the grade of pesticide damage Grade 3 [1, 3]: 0
- Resistance evaluation ([1]; isoxaflutole 280 g ai/ha): Poorly
- Scores ([1]; isoxaflutole 280 g ai/ha): 63
- Classification and statistics of the grade of pesticide damage Grade 0 [1, 4]: 0
- Classification and statistics of the grade of pesticide damage Grade 1 [1, 4]: 2
- Classification and statistics of the grade of pesticide damage Grade 2 [1, 4]: 14
- Classification and statistics of the grade of pesticide damage Grade 3 [1, 4]: 0
- Resistance evaluation ([2]; mesotrione 210 g ai/ha): Non-resistant
- Scores ([2]; mesotrione 210 g ai/ha): 81
- Classification and statistics of the grade of pesticide damage Grade 0 [2, 5]: 0
- Classification and statistics of the grade of pesticide damage Grade 1 [2, 5]: 0
- Classification and statistics of the grade of pesticide damage Grade 2 [2, 5]: 9
- Classification and statistics of the grade of pesticide damage Grade 3 [2, 5]: 7
- Resistance evaluation ([2]; mesotrione 420 g ai/ha): Non-resistant
- Scores ([2]; mesotrione 420 g ai/ha): 100
- Classification and statistics of the grade of pesticide damage Grade 0 [2, 6]: 0
- Classification and statistics of the grade of pesticide damage Grade 1 [2, 6]: 0
- Classification and statistics of the grade of pesticide damage Grade 2 [2, 6]: 0
- Classification and statistics of the grade of pesticide damage Grade 3 [2, 6]: 16
